{"source": "paper PMC11485749", "about": "(mAbs, 2024)", "binders": {"B1": {"name": "23ME-00611 (antibody, V domains shown)", "VH": "EVQLQESGPGLVKPSETLSLTCTVSGFSLTNYRVSWVRQPPGKGLEWLGVMYAGGGTNYNSVFKSRLTISKDNSKNQVSLKLSSVTAADTAVYYCARERPLTGVMDNWGQGTLVTVSS", "VL": "DIVLTQSPDSLAVSLGERATINCRASESVDYSGNSFMHWFQQKPGQPPKLLIYRASNLESGIPDRFSGSGSRTDFTLTISSLQAEDVAVYYCHQSNWDPPTFGGGTKVEIK"}, "B2": {"name": "23ME-00610_E93W (antibody, V domains shown)", "VH": "EVQLQESGPGLVKPSETLSLTCTVSGFSLTNYAVSWVRQPPGKGLEWLGVMWAGGGTNYNSVFKSRLTISKDNSKNQVSLKLSSVTAADTAVYYCARERPLTGVMDYWGQGTLVTVSS", "VL": "DIVLTQSPDSLAVSLGERATINCRASESVDYSGNSFMHWFQQKPGQPPKLLIYRASNLESGIPDRFSGSGSRTDFTLTISSLQAEDVAVYYCHQSNWDPPTFGGGTKVEIK"}, "B3": {"name": "23ME-00610 (antibody, V domains shown)", "VH": "EVQLQESGPGLVKPSETLSLTCTVSGFSLTNYAVSWVRQPPGKGLEWLGVMWAGGGTNYNSVFKSRLTISKDNSKNQVSLKLSSVTAADTAVYYCARERPLTGVMDYWGQGTLVTVSS", "VL": "DIVLTQSPDSLAVSLGERATINCRASESVDYSGNSFMHWFQQKPGQPPKLLIYRASNLESGIPDRFSGSGSRTDFTLTISSLQAEDVAVYYCHQSNEDPPTFGGGTKVEIK"}, "B4": {"name": "23ME-00610_A33R (antibody, V domains shown)", "VH": "EVQLQESGPGLVKPSETLSLTCTVSGFSLTNYRVSWVRQPPGKGLEWLGVMWAGGGTNYNSVFKSRLTISKDNSKNQVSLKLSSVTAADTAVYYCARERPLTGVMDYWGQGTLVTVSS", "VL": "DIVLTQSPDSLAVSLGERATINCRASESVDYSGNSFMHWFQQKPGQPPKLLIYRASNLESGIPDRFSGSGSRTDFTLTISSLQAEDVAVYYCHQSNEDPPTFGGGTKVEIK"}}, "key": {"[1]": {"target": "T1, recombinant MfCD200R1 ECD (Macaca fascicularis, UniProt G7NZT0)", "experiment": "SPR"}, "hCD200R1-iso4-Ref ECD [2]": {"target": "T2, hCD200R1-iso4-Ref ECD (Homo sapiens, UniProt Q8TD46)", "T2 sequence (Q8TD46 29-265)": "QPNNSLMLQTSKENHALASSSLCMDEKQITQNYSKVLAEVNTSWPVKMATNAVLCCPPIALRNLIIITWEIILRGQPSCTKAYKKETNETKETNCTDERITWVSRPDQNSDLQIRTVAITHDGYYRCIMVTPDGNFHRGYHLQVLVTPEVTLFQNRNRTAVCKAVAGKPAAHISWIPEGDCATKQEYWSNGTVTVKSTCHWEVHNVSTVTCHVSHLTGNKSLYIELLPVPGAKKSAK"}, "[3]": {"target": "T1, recombinant MfCD200R1 ECD", "experiment": "SPR", "remark": "listed apart in the source"}, "[4]": {"target": "WT hCD200R1-iso4-Ref expressed on Expi293 cells (Homo sapiens, UniProt Q8TD46, strain)", "sequence (Q8TD46 whole entry, looked up, change not shown)": "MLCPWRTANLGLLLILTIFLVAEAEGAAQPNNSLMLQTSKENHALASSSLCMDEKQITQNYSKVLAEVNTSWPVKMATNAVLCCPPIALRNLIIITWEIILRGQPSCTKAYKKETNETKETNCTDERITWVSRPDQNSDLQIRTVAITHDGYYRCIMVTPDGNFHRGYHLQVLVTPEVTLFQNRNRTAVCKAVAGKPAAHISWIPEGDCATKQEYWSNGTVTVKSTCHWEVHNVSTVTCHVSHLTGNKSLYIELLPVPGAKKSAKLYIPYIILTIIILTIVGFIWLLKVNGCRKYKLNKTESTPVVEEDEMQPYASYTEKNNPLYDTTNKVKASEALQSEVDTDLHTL", "experiment": "flow cytometry on cells"}, "hCD200R1-iso4-Ref ECD [5]": {"target": "T2, hCD200R1-iso4-Ref ECD", "experiment": "SPR"}}, "note": "Read-outs that look alike come from different tables or passages of the source."}
{"binder": "B1", "values": [{"measurement": "Kd", "setting": "[1]", "value": 2, "unit": "nM"}, {"measurement": "Kd", "setting": "hCD200R1-iso4-Ref ECD [2]", "value": 1, "unit": "nM"}]}
{"binder": "B2", "values": [{"measurement": "binding result", "setting": "[3]", "value": "binds"}]}
{"binder": "B3", "values": [{"measurement": "binding result", "setting": "[4]", "value": "binds"}, {"measurement": "Kd", "setting": "hCD200R1-iso4-Ref ECD [5]", "value": 0.1, "unit": "nM"}, {"measurement": "binding result", "setting": "[1]", "value": "no binding (tested: up to 200 nM)"}]}
{"binder": "B4", "values": [{"measurement": "binding result", "setting": "[3]", "value": "binds"}]}
